# Results taken from the domain aggregation screens of Martell et al. (2025).
# Assay: soluble fraction after stress (log2 fold change); higher = more stays soluble; pooled small domains, quantitative proteomics
# Conditions: stress: 75 degC
# 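Note: 20 min heating vs room temperature control held 20 min.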
row,Sequence,soluble fraction (log2)
1,HMDNNFIQSLYPIAIGISKNQLDPWDLINGWVEYYLKNKEKYINHPNLKAVAVLKMKGLLIDHFRKS,-3.55
2,HMTYKPAADFKPSDTSSLKEGMKVEHPKFGFGTVMKMEEVGTERKARINFADFGEKTLLLSFAKLKIHEN,-0.256
3,HMNNDFIVKSTDSHKVNLRSQPDTHADIIKRLDDHTIVEKLKTVRKNWYLVQLKDTTTQGYVHKSQLERV,-0.357
4,HMGREVVVPNLAGIEKEVALDLLKKNRLGGMITGTRFSSDFPAGQVIQQMPEAGSRVKVGKQVKLVLSEG,0.207
5,HMSQDVLLKRSGDQIEVKITEVGEDYLKYKKKGFENGPDFKINTSDVFMVTFANGEKMMFEES,-0.033
6,HMGWTTPAGIAVGMDKSVLQDAYGKEDDTFQDKGILYYQYFVHPSRMSGLSFGIKNDKIVSITAYMD,-2.02
7,HMGKVLIYKPNMSVSDVAIRLGISNAEIIKRLMGLGVMTSINQTIDRDTIELVAMDLGFSIEN,-1.81
8,HMVYFAKNIRHLRRLRGMSQELLAAELDITRARLGAYEESRSEPPLHLLIKISEFFKLPVDIIVKNDLTKS,-4.88
9,HMEDPFLWVEKLGSSDWIEREESAEKLLEAGEASVEALRTALTHPDLEVRERVRELLSVISPL,0.409
10,HMTYTPRAGSLASQVIGFFRHNPDEELLLDDITDKFDATRGNIHTLLAEAVRFKLLARYRNDDGDYVYKPG,-3.06
11,HMPLAQRFGLTVAQARVLDLLAEGRSNRQIGELLGLTEGTVKIHVSAIMKAMGVSNRAEAALMANRKR,-1.7
12,HMPDLSYVDEVLNRYKGHKGTLITVLQQVQAHKGYLEKEALERVARSMGVPTARIYGVVTFYAQFR,0.138
13,HMKVQEMTANSFLTQWEAGNVKTLDILPEGIIKGELNDGTKFQLYYSSAAGLIDDVKKNPEKFANTTVSEK,0.0538
14,HMDSILMPGVVNKELREALAILKNEGIGWADPEYASSTVTRNYVISTDPVEGIELAPGQKVRLVVSLGPKP,-0.326
15,HMRKDYTVLYSAVNAEEATEIVSKLQESGVAYQYKDNGDVLVDKKQVDKVRAQLAQEGYPKS,0.0467
16,HMSSDLSNVVKIIDTLKHKKGALLPILHQIQREIGYIPLKTIDTIAKKLQQTPAEIHGVISFYHQFRTS,0.0116
17,HMVSTGIMVVDGRGSVLQHNEAALRQLGVEVLTFESQVKEKLASEDFSVRETTAMLNGKKVRIIAFSDIR,-2.44
18,HMQARLPFSFAKRHGVILLAATGEGQSDVIYKSGFDIGALAEVRRFVAGEIALKEVDGPSFDRQLTLTYQN,-2
19,HMGESFPYVAYATDSVRLRARPSSSATILTVIRKGDAVLITGADGSYKIVEYEGRKGYVVSAFLSSQET,-2.51
20,HMEGTEILVNIRKGMTKEEIASLLVSKGLVEDKNTFLVQTALYTSDRYPIQPGSYTLNTAQTPEEMLAVMT,-0.0935
21,HMDVDKQLDQLLAAMIPDKSLRQTIKTKAFNELVDNELADKDISSWTKQTMDVFMTRAEDMFGAM,-0.274
22,HMYKNLRAFRESLGMTQKDFAASLSIGLSTYNGYEVGAREPKSDFWIAVARKYGVTIDYLMGFSDDPHK,-1.46
23,HMGIFAQTTKWRDIYTVKKKDTIFGIANKYGLSLPELMEANPEMKQEGYMLQKGTTLFIPFASD,-1.32
24,HMNNGTDGLTTRLRRAILAGQYTFKERLPSERQLAEHFNTSRGTVRKVLQRLTTMNLVEQRAGSGTYVRYG,-0.302
25,HMAGDVVVEVVGKVRDPQVVTLPKGSRVQDALEAAGGVKPGVNTTDQNLARLLVDGEQIRIGLSS,0.107
26,HMKHFTYEEMELMSIYDPGTREGLIANLEEMRGYLEPDETELRELTDSALEKLRELSDADYEQLELI,-0.516

row,Sequence,soluble fraction (log2)
1,HMNMSVGAALRRRRNELGMTLRELADEAELTSGFLSQVENDRVSPSLKSLGRIAEVLRIPLFQLLS,-1.72
2,HMSVAVKAPLQGTVMKVNVKPGDTVTKGAPVAVIEALKMENDVPAPQDGVVASVDVKSGDSVKTDQVLLTL,0.563
3,HMSNFGERLRALRQDRQMTLQQASKVTGVAQSTLSKMENNQLSPTFNLMQKLAIGLGIDMPQLFAPVK,-0.642
4,HMGTVISVDKARSIALAKVPGASANDIRIHLDRDDGRQIYEGEIYYNRMEYEFEIDASTGTIIEWSAEHW,-2.33
5,HMGMEENLLKERKQILMDIMKSKEYQPMKVKELAMVLNVPKEDREELRYVLNELMNEGKIVESKKGKFSIA,0.129
6,HMNMGKRFKELRKERKFTQQQLADRIGLAPSAISSYESGARYPSYDVLIKYSKIFHVTTDYLLG,-2.79
7,HMDMNVQNYRGLSLDRAKKLISDLGLKYEVVGTGDSVVKQVPSSGSRMSKENGRIILYTENVEDA,-0.0826
8,HMRRSKQERQQAIKTLISNEQIQRQEDLVRKLNEAGWEVTQATISRDITEMQLVKVPLPTGGFAYAVM,-0.0517
9,HMNTELSPKVWDVVQEFILYRKEIKAPMTEHAVKLLIGQLQKLSSDPDEQIEILRQSIVNGWKGIFSLK,-1.2
10,HMNMSVVEKVIQQISNPGRDSLIPILQAVQEEEGFISRESVIEIGKALDLPASKIYGVATFYNQFR,-0.206
11,HMDLPDTLSMPNALKVLEDNGFPTSKAKLYKMTSQEQIPFMKYGNKLVFSRKALIEWAHKQLV,-1.94
12,HMVNSADLAAKPFIDLLVSTRQQLREAKQYDLADTIRDELTNHGITIEDKPQGSEWQYEFNPNS,0.0875
13,HMDNPKGNLQEAVQAKGNEPIEYRVLNVDGPDHAREFKIAVFIGGKRKGTGVGNSKKKAEEIAAEKAFKRM,0.109
14,HMNTPLYLKIREQIFDALRSGRWAANDPLPSETKLASEFEVSQGTIRKAIDDLVAQNILYRHQGRGTFIRR,-1.21
15,HMRMDKHLWLSLLRLINEGSAEELQTKKDELLQSLERLRITRGPVRGDVLRVVRLIDEELVSRLHLDQR,-2.58
16,HMSNWYKNNETDQIWWKDTPDSVGEWLFSFDKKQVFNMFADYPHNLTPEQKKIFDEENPEWSDRP,-0.351
17,HMGEQLALLERARTLLEDETLETEVQKELEMLLEDIEAARAEANATQLEDLFEELADLLFDLE,0.316
18,HMTTIPAGRQQYILSLIRREGTVTVSRLAQELEVSELTIRRDLDQMAARNLVERTHGGATERR,-1.53
19,HMIISMKKTATKEQIAHVRELIEGMGYKAHMSVGAERVIFGAIGDERGKERLVSLEAQPGVEKVIPIL,-0.445
20,HMQTTPAGHELLIRYFANGNIRERGMMKDGKRNGIWIFYDESGMEIRKTKYKMGKIISDYDLN,-2.6
21,HMDKSFYETFEKIGHGDFDKGLNHVWQHANDGNGTATLLLSKLFLEFGDLDNFEKYLNISAEQSNPVAMKI,-0.357
22,HMIPNPMTDRELEVLGLLASGKTYKQVARALDLSQSTVRNHLHNVYHKLNVVDRAQAVIVSRENGW,-0.379
23,HMHWDIAQADAKQEVMDSSDDKEAIERIQANMFKDPKDHDQEYANKILNDMIDEIKEKGLEAMQHKFAQE,-0.443
24,HMPEGTYLEKLAIENNNLQLIGLSREASQLVQLLQDAPQWRKVNLTGVLQADGAASGRDRFTMTAELQ,0.0999
25,HMTRNGTVTFFNHDKGYGFIKDVLTQESVFVHINSLSEPINEQNKVSFEIEMGPRGSNAINVKLI,-1.65
26,HMDKKTMFNEALAKLVSYATAHDNLITMEDVKSFFNGLIDDDSQYKLIYDYLSINKIEIKGFT,-0.465

row,Sequence,soluble fraction (log2)
1,HMRPTAWEQVSRHIDQHGSIGNTEVRKAMETENVLAASKQIKKWLEQGLLIILNPTAGTRARRYSKPNM,-1.19
2,HMNINVRNTGIKAVENNIINLSSDQRTFTWASNDRKLITVPFDENPYSALAAWFKTDEGIEVYQTIEKKL,-0.0488
3,HMTVKNFNDLPGFKNENLAELKAMGITTISELAEALNDGGKIKEIIKNLSGVGPKTAEKWKDAIG,≥ 1.04
4,HMEAIYKKNKNLIHTVIRDNFPFLIDTADYEDAFQEGSIGLIRAIDRFDDGLEYKFSSYAYTAIRNQIA,-1.15
5,HMDGFAEFWSAYPKKVGKGAAEASWRKHRPPLQTVLDAVKRQAESDQWRKDGGQFIPNPATWLNQKRWEDD,-0.0375
6,HMAQSTALVNLAQAEINKRGLTQTEVQARLSEEGINVNSISPAEYPKYQKQILSILDQMQKEKQLSKEV,0.287
7,HMDDKVGKVFNYVQEKILTGEWDIGDKITPEISLSKELGVSRSVVREAIKKFVALNILSRTQGGGTYVNNL,-0.848
8,HMGLTYEQILTDVQRFVTQNHADTLSNEGNPEEARKLLKDYILQYVQNRSYHVDGQTTEELVDSLYED,-0.231
9,HMASMHDGVAARLRAMVFERELAPGEFIDERRLAQQWQISRTPLREALKVLAAEGLVELVPRRGARVV,-1.12
10,HMRNMTDYLTIVRAVYGGLSQRQAATTYHVSRNTVSLLIRHAKNQGWLTVEDLSRADAAAFSPA,-0.393
11,HMETPDLTQLNPILDEYRGQKGAVIPVLQKAQKIYGFLPPEVLRRIAAGMRVPLSKIYGVATFYSQFY,0.134
12,HMGIVAPGTLKHLHAVGNSYYPDWETKRHELVTAVTKGRTSSSKELYEAEANRLITRIEELLMTAAQSV,-0.113
13,HMLTEERLQIITDTVNSRSSVTIAELSRILDVSPSTVKRDLNILAEAGKITKVRGGAIALGE,-0.285
14,HMDYKSKLQELVQTEKRTVEYKLVDESGPAHNKSFTFEVVISGIKYGSGTGASKKIAEQNAAKEALEKLA,-0.277
15,HMKQQAYEQGKAAYQSGDWLRAVTQLGQVKEAGEKNGEVDHLLGNAYMKLGQFESAAYAYNSALEDVA,0.53
16,HMNPNEVQIPDLVNKTEDEAEQILKDLKLKLVVKSEEYNENIEKGKIISQDPPYQENYTIKEHSEISIVIS,0.335
17,HMEHVVFEVTESGELENNTAVKHVLNSFNNKSLNLAIDDFGTGYSNLRYIRDMMFGIIKIDRLFIKDINES,0.324
18,HMSPSQFRSKSLLVEINFASRQMDGEILQGDYAGKRLSELTEAEVQELTAWLKQSDRESFVLLQAYLLRSG,-2.46
19,HMSSDDEAFKRELVGLIPHLRAFARTLTGDPTAADDLAQDAMMKAWDARASYQMGTNMKAWTFMILRNQFY,-2.53
20,HMADNILPAQTDAIKALATENGFSNESLEKYLIENYGTTIYGLSRNQGIQIINLFQSENPPKP,0.277
21,HMTLSVRQRMSQIINKIDVSNFTDFTKLFDINEGRLGVAVTFLAILELLKDTMIDVIQNEEFAPLHIKVSS,0.128
22,HMSEDAVKFRAAVEVENGLAQRNLNKNQAALILGVDRSYFTYIISGKKTPSPDMAKRIGLLLGFDWRVFYA,-1.89
23,HMVDVNLLKYYVMESGKSLTDVAAAIGVTPATLHRKMSGESDFYRKEMQDIASYLGLDRDTIDRIFF,-1.84
24,HMPPELSDEVMEEAMSYLKNQYLNHGVKLEDYPALNKLFVDEAFRSEVIRKTQSNYKISYQSAMASLD,0.355
